From PMC7969121, “Structural and Kinetic Characterization of Hyperthermophilic NADH-Dependent Persulfide Reductase from Archaeoglobus fulgidus” (Archaea, 2021)
Values belong to the molecule of their own block, whether it stands above or below them.

Legend:
AfNpsr; A. fulgidus Npsr = target: T1, AfNpsr; A. fulgidus Npsr (Archaeoglobus fulgidus, UniProt O29847); assay: X-ray crystal structure, […] Å; type: binding; details: tightly bound catalytic CoA in active site near Cys 42
T1 construct: gene AF_0400; codon-optimized full-length gene in pET21b+, C-terminal His6-tag, E. coli BL21(DE3); FAD added; FAD domain 1-448, rhodanese domain 449-550

[1] = substrate: CC(C)(COP(=O)(O)OP(=O)(O)OC[C@H]1O[C@@H](n2cnc3c(N)ncnc32)[C@H](O)[C@@H]1OP(=O)(O)O)[C@@H](O)C(=O)NCCC(=O)NCCSS; assay: NADH oxidation at A340, Michaelis-Menten fit; type: biochemical, Archaeoglobus fulgidus; details: 100 μM NADH, aerobic, 50 mM sodium phosphate pH 7.5, 70°C, persulfide made in situ from disulfide + 2-fold sodium sulfide, oxidase background not subtracted
Excerpt: (§1) NADH oxidation at A340, Michaelis-Menten fit on AfNpsr; A. fulgidus Npsr

[2] = substrate: N[C@@H](CSS)C(=O)O; assay: NADH oxidation at A340, Michaelis-Menten fit; type: biochemical, Archaeoglobus fulgidus; details: 100 μM NADH, aerobic, 50 mM sodium phosphate pH 7.5, 70°C, persulfide made in situ from disulfide + 2-fold sodium sulfide, oxidase background not subtracted
Excerpt: as §1

[3] = substrate: O=C(O)c1cc(SSc2ccc([N+](=O)[O-])c(C(=O)O)c2)ccc1[N+](=O)[O-]; assay: TNB formation at A412, Michaelis-Menten fit; type: biochemical, Archaeoglobus fulgidus; details: 100 μM NADH, aerobic, 50 mM sodium phosphate pH 7.5, 70°C, buffer background subtracted
Excerpt: TNB formation at A412, Michaelis-Menten fit on AfNpsr; A. fulgidus Npsr

[4] = substrate: NC(=O)C1=CN([C@@H]2O[C@H](COP(=O)(O)OP(=O)(O)OC[C@H]3O[C@@H](n4cnc5c(N)ncnc54)[C@H](O)[C@@H]3O)[C@@H](O)[C@H]2O)C=CC1; assay: NADH oxidase, A340, Michaelis-Menten fit; type: biochemical, Archaeoglobus fulgidus; details: aerobic, O2 as acceptor, no di-, per- or polysulfide, 50 mM sodium phosphate pH 7.5, 70°C
Excerpt: NADH oxidase, A340, Michaelis-Menten fit on AfNpsr; A. fulgidus Npsr

- X-ray crystal structure, 3.1 Å (AfNpsr; A. fulgidus Npsr): In AfNpsr, CoA is deeply buried
Molecule: CC(C)(COP(=O)(O)OP(=O)(O)OC[C@H]1O[C@@H](n2cnc3c(N)ncnc32)[C@H](O)[C@@H]1OP(=O)(O)O)[C@@H](O)C(=O)NCCC(=O)NCCS [CoA]

B1: AfNpsr; A. fulgidus Npsr (Archaeoglobus fulgidus DSM 4304) (protein)
chain: MNVVVIGGGAAGLKAASRIRRKDGDASITVVEAGKYVSLGRCGLPYYVGGLVHEVDNLRETTYGAVRDEAYFKKLKNIDVLTETVATEIDRSRKTVKIVRNGSEDELNYDYLVIATGARPAKPPIEGIEAEGVVTLTSAEEAEKIIEMWEEGAEKAVVIGAGFIGLESAEALKNLDMEVTVIEMMDRVAPAMLDREMAVLVENHLREKGVNVVTSTRVEKIVSQDDKVRAVIANGKEYPADVVVVATGIKPNSELAEKAGLKIGETGAIWVDEYMRTSDESIYAGGDCVETTCLVTGKKIIAPFGDVANKQGRVIGENITGGRAVFPGVIRTAIFKVFDFTAASAGVNEQMAKEAGLDYFTVIAPSPDRAHYYPQANYIRLKLIVEKGSWRVIGAQGVGMGEVAKRIDVLSTAIQAGMTIDQLANLDLAYAPPYSPALDPVITIANVAMNKRDGLFEGINVFELKEKLEKEDIVILDVRSEEEFKTRRIESEKVIHIPILELRERLDEIPRDKEIVVVCAIGLRSFEASRILKHAGFEKVKILEGGMAFWF
notes: codon-optimized full-length gene in pET21b+, C-terminal His6-tag, E. coli BL21(DE3); FAD added; FAD domain 1-448, rhodanese domain 449-550
- Km [1]: 547 ± 41 µM
- kcat [1]: 13.2 ± 0.3 s⁻¹
- kcat/Km [1]: 24100 ± 1400 M⁻¹ s⁻¹
- Km [2]: 3410 ± 630 µM
- kcat [2]: 230 ± 23 s⁻¹
- kcat/Km [2]: 67600 ± 11000 M⁻¹ s⁻¹
- Km [3]: 743 ± 196 µM
- kcat [3]: 2.44 ± 0.14 s⁻¹
- kcat/Km [3]: 3280 ± 480 M⁻¹ s⁻¹
- Km [4]: 20.6 ± 5.1 µM
- kcat [4]: 7.15 ± 0.51 s⁻¹
- kcat/Km [4]: 347000 ± 75000 M⁻¹ s⁻¹
